Target: recombinant SF2/ASF (Protein One) (UniProt Q07955)
Sequence (Q07955 whole entry): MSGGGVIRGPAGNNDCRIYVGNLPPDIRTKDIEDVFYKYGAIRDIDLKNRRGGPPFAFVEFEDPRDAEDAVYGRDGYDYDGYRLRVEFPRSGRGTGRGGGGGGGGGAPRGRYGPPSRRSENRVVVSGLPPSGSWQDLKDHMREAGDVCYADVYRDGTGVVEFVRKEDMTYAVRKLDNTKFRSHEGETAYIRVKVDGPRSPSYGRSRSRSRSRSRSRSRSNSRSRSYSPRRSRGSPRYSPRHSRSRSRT

Clk1 (Cdc2-like kinase), endogenous, from human platelets, sequence (chain, as listed by the source): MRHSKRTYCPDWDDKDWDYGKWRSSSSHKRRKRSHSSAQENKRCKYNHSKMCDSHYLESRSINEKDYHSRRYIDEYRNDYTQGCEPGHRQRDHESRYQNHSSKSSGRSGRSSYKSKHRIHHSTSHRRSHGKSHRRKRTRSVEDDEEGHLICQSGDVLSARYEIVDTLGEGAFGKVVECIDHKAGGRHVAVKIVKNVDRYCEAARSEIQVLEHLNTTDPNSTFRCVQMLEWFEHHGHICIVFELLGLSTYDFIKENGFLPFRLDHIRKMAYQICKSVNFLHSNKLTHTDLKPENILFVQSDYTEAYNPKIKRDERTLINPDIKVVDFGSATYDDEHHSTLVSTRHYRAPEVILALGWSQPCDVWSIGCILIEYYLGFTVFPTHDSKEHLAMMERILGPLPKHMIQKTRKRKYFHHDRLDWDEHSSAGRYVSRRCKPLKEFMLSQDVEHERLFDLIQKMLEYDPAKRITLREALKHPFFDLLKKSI

Q: With “Clk1 (Cdc2-like kinase), endogenous, from human platelets” as the substance, how does the “SF2/ASF phosphorylation (immune complex kinase assay)” value read?
A: Clk1 from activated platelets (grown on immobilized fibrinogen in the presence of thrombin for 30 minutes) markedly increased SF2/ASF phosphorylation
